Results taken from the DeepSol protein solubility set.

assay: soluble on expression in E. coli; label from the status in PepcDB or PDB records

Sequence	soluble on expression in E. coli
MKKAKSRIAILGTGGTIAGFIDSTIATTGYAAGAIDIDVLIKAVPQIRDLADISWEQIANIDSSNMCDEIWLRLAKKIAKLFAEGIDGVVITHGTDTMEETAYFLNLTIKSDKPVVLVGAMRPSTAISADGPKNLYNAVALVVNKEAKNKGVMVAINDKILSARGVVKTHSLNVDAFSSPDFGDLGYIVDGKVFFYNNVIKAHTKNAPFDVSKLTSLPKVDILYSYSNDGSGVAAKALFEHGTKGIVVAGSGAGSIHKNQKDVLKELLKKGLKVVVSSRVVAGCVAVSDSDEKLGFISAEDLNPQKARVLLMLALTKTSDPKKIQEYFLKY	soluble
SNAMIYPYKEKKPKIASSAFIADYVTITGDVYVGEESSIWFNTVIRGDVSPTIIGDRVNVQDQCTLHQSPQYPLILEDDVTVGHQVILHSCHIKKDALIGMGSIILDGAEIGEGAFIGAGSLVSQGKKIPPNTLAFGRPAKVIRELTAEDRKDMERIRTQYVEKGQYYKSLQK	soluble
DEIVMDANAVLGPVDPQLGNFPAASILKVVKDKPIGEIDDQTLIMADLAGKAIQQVQRFVRTLLKDNIPKQKVNPENIESIIEALTTGRVTHDYPITVEEATEMGLPITVGLPRSIYELMDLYPQSQGGRPSVQYIPMPYDDRRPIL	not soluble
SLNEVQQAVDMQRRQLLQRLGKDFDPSMLDDKLLKEAALKGLIERTLLLQAAKDDKFAFSDQALDQLILQTPEFQVDGKFNADRFDQVIRQMNYSRMQFRQMLGQEMLIGQLRAGLAGTGFVTDNELQSFARLEKQTRDFATLAIKADASKSSVSDDEVKAFYEGHKSEFMTPEQVVVEYVELKKSSFFDQVKVKQEDLEALYQKEIANLSEQRDAAHILIEVNDKVGDEQAKAKIDEIKARLAKGEDFAALAKEFSQDIGSAATGGDLGYAGRGVYDPAFEEALYALKQGEVSAPVKTPYGYHLIKLLGVQAPEVPSLESLKPKLEDELKKQMVEQRFVEATKDLESSAYEAADLSQPAQEMGLKVQTSQPFGRSGGDGIAANRQIVQTAFSAEVLEEAANSGAIELDPDTVVVLRVKEHNKPKEQPLEQVAANIRERLAAEKAAEEAQKRGEALIAELREGRTSSAAGESWKVVEAASRGHEGVDPKLLQAVFRMQRPEAKDKPSFSGVTLANGDYVVIRLNGVSEPEEAISDDEKAMYRRFLASRSGQADFAAFRRQLQD	not soluble
MKKIVTATIATAGLATIAFAGHDAQAAEQNNNGYNSNDAQSYSYTYTIDAQGNYHYTWTGNWNPSQLTQNNTYYYNNYNTYSYNNASYNNYYNHSYQYNNYTNNSQTATNNYYTGGSGASYSTTSNNVHVTTTAAPSSNGRSISNGYASGSNLYTSGQCTYYVFDRVGGKIGSTWGNASNWANAAASSGYTVNNTPKVGAIMQTTQGYYGHVAYVEGVNSNGSVRVSEMNYGHGAGVVTSRTISANQAGSYNFIHLEHHHHHH	not soluble
MGSDKIHHHHHHVGYPRDFQLNYATLFSVSPLVIDWGSYSQIEAEMRLFQAAAPGKYAYYHLLSGLDLPLANQDEIHAFFAAHPGKEFITYSSQKNGAQLLARVQKYHFTHNFRQPNKAMRLFRKIEKAEQRVFPVRKKFAGTLAFGSNWVSLENDLVQVLLREDDRIRTMFARGFLVDELLVPTMLNIYPEFKDRIYYDRPVHDRPEEFQGSLRYINWWDGSPYVWREKDYETLLAARRQGHLFSRKFDAEVDKAIIDKIAGQLLEIK	not soluble
MNIFEAIENRHSVRDFLERKMPERVKDDIENLLVKFITKKLDWKINLSSFPSYIYAKAEKHFDELVEYGFQGEQIVLFLTAQGFGTCWMARSPHPDVPYIIVFGYPRTRNFTRKRRPITSFLENDLEELPPEIVKIVEMTILAPSALNRQPWKIKYTGGELCISSERPVDLGIALSHAYLTAREIFKREPVIQKRGEDTYCLILNP	not soluble
MLRQWWLRSVGSCSTVYRAHSGCSTSAAVKPKRAIPTDGLQLSDFIKESTKKQRQKAIIPSIEDTKEYLNPEDLQGNGRTVCYVTYGCQMNVSDMEIVRSIMTKYGFVESDKKENADIVLLMTCSIRDGAEKKVWNQLKLIRSNSVNKGQIVGVLGCMAERVRHDLLEKRNLVNIVAGPDSYRDLPRLVAVAAGGSNGINVQLSLDETYADVQPIRVDSASKTAFISIMRGCDNMCTYCVVPFTRGRERSRPIESIVEEVQRLRDQGYKQVTLLGQNVNSYRDMTSMDFSMAPSTSQEDRVPGFKTVYKPKSGGLTFTTLLEKVADAAPDIRFRFTSPHPKDFPMQLIELIASRPNLCKQLHLPAQSGDDETLERMERGYTRDLYLRLVDDIRHVLPSVSLTSDFIAGFCGETEQAHQNTLSLIRAVRYSFCFVFPYSMRGKTRAHHRLTDDVPEDVKARRHLDLTTVFREEALKLNQALIGSEQTVLLEGKSKRDASFSHGRIDGGVKAVFDNSKLCLEPGQYAKILITDANSQTLKAQLIGQSSI	not soluble
MKKSLGARTLAYPTPLFLVGTYDRDSRPNIMAAAWAGICCSQPPSIAVSLRKATYTYRSITERGAFTISIPSRAYVRHADYAGIYSGENEDKFASLGLTPVPGEHVDAPYVGEFPMAIELKLIHQIEIGLHTQFIGEIMDVKVDESCLRDDGLPDINKVDPVIFAPVSREYYAVGEFLAKAFSAGKGLRS	soluble
GMDTAKTKPFDEMFLQDEVIRPIYAEYAAWLQDVPHQQLESKRQEAELLFRRVGITFNVYGEDAGAERLIPFDVVPRILSASEWARLSDGAIQRVKALNMFLHDVYHDQEIIKAGIVPSSILANAQYRPEMFGVDVPGGVYAHIAGVDLVRTGENDFYVLEDNLRTPSGVSYMLENRKMMMRLFPELFRRYPVAPVEHYPQVLLNNLRAVAQAGVHEPTVVLLTPGAYNSAYFEHAFIAQQMGIELVEGQDLFVRNNAVYMRTTEGPKRVDVIYRRIDDDFIDPLSFRPDSMLGVPGLLSVYRNGGVTLANAVGTGVADDKDTYIYVPEMIRFYLGEEPILSNVPTYQLSKADDLKYVLDNLAELVVKEVQGSGGYGMLVGPAASKQELEDFRQRILANPANYIAQPTLALSTCPTLVETGIAPRHVDLRPFVLSGKTVSLVPGALCRVALREGSLVVNSSQGGGTKDTWILKD	soluble
MVLTLDLADPAQPEHVFIVEDSRGATELKLYKSHYTIGKADSCDIRLHSIYASRQHATLVRFLTENGEVRYRLIDGDPETSRRSANGTYVNNRSITECDLKHYDQILFGALEHHHHHH	not soluble
MGSDKIHHHHHHMLNTKDKQPILLIIFGQKMKEYDDLIRSTVERLSKRDRPVSILISKELNHVIHHYDAQFENLETLVGYINTHEDSLIYPLCLDKNHELFQEFLAWQSHYSRQYISDNLSEKSVQAIDNNQDFVQVDCLVMRDSLNNCLYVSDLEYIESNKTTGKSLAIVPSQTLSDAARQTIRDVAFDVCRKANIIGVCYFSFLIDLNSLDYHIISLSSGLSHQSILFETITTYPVLEIATKLTVGYTFSQLKHSYYPNTSAFLEPQLDYVATVSFSFEKVDYIFFARNIEQLFLNLLEASSHDHFPFLSDISEEDLMFALIQKKENRLAYLLEAFRRGFDLYDLSSVTKINPFYLDKCLHIVELYENLNKSQYNVDIYKEAKRYGFSDDYIASSWQISLIDMLEYRKKHSVAPVLKQVEQSSGVLTGHQIQYFRSYDWHSDYISSGCQKALIMVDKGYSLVKLNELIKQIKQTHLELLIVTNQPLLIEQLNDTSIIFDTIGIETILTIMGIEEVEEVYLLGESQADMFSKMKNFSISCQSI	not soluble
MLPDKGWLVEARRVPSPHYDCRPDDEKPSLLVVHNISLPPGEFGGPWIDALFTGTIDPDAHPFFAEIAHLRVSAHCLIRRDGEIVQYVPFDKRAWHAGVSNYQGRERCNDFSIGIELEGTDTLAYTDAQYQQLAAVTRTLIASYPAIADNMTGHCNITPDRKTDPGPAFDWPRFRALVALSSHKEMT	not soluble
MGNKIHPIGFRLGITRDWESRWYAGKKQYRHLLLEDQRIRGLLEKELYSAGLARVDIERAADNVAVTVHVAKPGVVIGRGGERIRVLREELAKLTGKNVALNVQEVQNPNLSAPLVAQRVAEQIERRFAVRRAIKQAVQRVMESGAKGAKVIVSGRIGGAEQARTEWAAQGRVPLHTLRANIDYGFALARTTYGVLGVKAYIFLGEVIGGQKPKARPELPKAEERPRRRRPAVRVKKEE	soluble
GPGSMRAEETAPSIPPPPTISPQKTSHRTAVVPSDPSNRPTQSLRSTKELMRQRRSTVVPRITDIFALGQLHEKGERVGSRNVCPPTWKQRMSLAGQFTTFCRTHEQPINEKSCAVILMAILDVAPSTRPQHARMLRSVLRMDRTPLDMMILGLKETAARSETKQQRQQSRAIYRRCACASSGRNSMAPPMRTTVNENETARTLRRSCFSATK	soluble
MFKKALFILSLCPSFALAQSYVVYDFTHNRVLESHASDSIQPIASVTKLMTANVFLENNKNPNCRIAITKEDTDRIKGTGTKLPKNIPISCNELLKAMLVHSDNYAAHALSRAAGISRRQFIKKMNEKAHQLGMYSTRFHDSSGLSSYNISSPMDLVKLAKYSLNKSDIKRLSNLSATYIQAGKQKLYIKNTNKLVRDEIFDAAVNKTGYIQESGYNLVFINKHRCKNATIGVISLNNTSSAYRSSFTKSKLEKFGCTALNGRTIRDVAGEAQYEDGYDEVGFNTLIQKLSK	not soluble
EHVEMLSAAGATVVAFDPLSEQLPQCDGLIIPGGFPEEHCDVLEQRADLKQQVCDVIAQGIPVHAECAGLLWLLSTLDGRPMLDVIPTHGAMGRRLTLGYRDAVVVHDSVIYRAGERVTGHEFHHTAIADSVVPGWDSAWGWRAWDGSPKVEGFVSGNVHASYLHVHPAAVPAAVRRFVEACAR	not soluble
GMTARNILSYSYEEYVEKITAFHGYPAPGVLIGGFMVDLAVKNLPEGILYDAICETRTCLPDAVQLLTPCTFGNGWLTVLPMGLFAVSLYDKFTGEGVRVFLDVEKMGPWQEIRNWFLKLKTKKEQDSERLFKEIREAGPDILELRNVKLKPGFLEKKHKGKIVLCPQCREAYPAQDGELCLSCQGGSPYL	soluble
MSLNNYKIFISAGESSGDIHGANLMRSLLKKNPNITFYGLGKERMNEAGLHCLCDMKTKSLMWLHALTELSAFLRMKKDCVRFFQHETPCAVILIDYCGFNFQLARAAKKLKIPVIYYITPQLWAHGPWRIKKLRKLVDFLIVIYPFEKSFYETSGLPVTYVGHPLFDELDRERRINNHLSMEEKQVGEYIVSLLPGSRKQEIIRLLPLLLRAAKQIKQTIPSIKILVSCTSEQYFSLIRLIVEASHLPAEIIVGCVRKIIQSSDICLAGSGTVTLQIAYYHTPMLIVYKISPFAYFIARPFLTTPYIGLVNILANKMIVPETLMCSNNYSRLANQAIELLRNNQKRHLCIENLRSLMDDIGKPGASERAAEEIFRFLRQETEGHHHHHH	not soluble
MENLKETVDIVVNSRYPEMNREGRELLAQVLIRKELEKGEMLLNEGQISRHMVFVGKGMLRQFYYKNGKDVTEHFSYEGCILMCIESLLKQEPTHLMAEALEPAVVYMLPYDVLQKLLEQSKEINAFYRKVLEYSLIVSQIKADSWRFETARERYNLLLHHHPEIIKRAPLSHIASYLLMTPETLSRVRSGVL	not soluble
IAPTVWKLADRSKIYMADLESALHYILRIEVGRFPVLEGQRLVALKKFVAVLAKYFPGRPLVQNFLHSVNEWLKRQKRNKIPYSFFKTALDDRKEGAVLAKKVNWIGCQGSEPHFRGFPCSLWVLFHFLTVQAARQNVDHSQEAAKAKEVLPAIRGYVHYFFGCRDCASHFEQMAAASMHRVGSPNAAVLWLWSSHNRVNARLAGAPSEDPQFPKVQWPPRELCSACHNERLDVPVWDVEATLNFLKAHFSPSNIILDFPA	soluble
